# Test: yeast display, Sf9 membrane polyspecificity reagent, FACS + sequencing; frameworks hold sequencing errors
# How it was run: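 Using colony PCR, genes from sorted yeast display clones were amplified, then sequenced on MiSeq at 2 × 250 and filtered by CDR length. The clones had been stained with 10% biotinylated, detergent-solubilized Sf9 membrane reagent for 1 hour at 4 °C and sorted by FACS into low and high (top ~1%) gates on anti-HA and streptavidin fluorescence. Polyreactivity labels come from the gate of origin.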
row,Sequence,polyreactivity (PSR sort gate)
1,QVQLVESGGGLVQAGGSLRLSCAASGSNLGLYAMGWYRQAPGKERELVAAISSGGSTYYADSVKGRFTISRDNAKNTVYLQMNSLKPEDTAVYYCAADLSLSRVVFGDYDYWGQGTQVTVSS,low polyreactivity
2,QVQLVESGGGLVQAGGSLRLSCAASGSNSRYAMGWYRHARGKERELVRAITRSGGSTHYADSVKGRFTISRDNAMNTVYLQMNSLKPEDTAVYYCATRYYRGVIRYPYDSWGQGTQVTLSS,high polyreactivity
3,QVQLVESGGGLVQAGGSLRLSCAASGSNVYYAMGWYRQAPVKERELVAAINTSGGSTYYADSVKGRFTISRDNAKNTVYLQMNSLKPEDTAVYYCAAVYVGYITGFKRGYWGQGTQVTVSS,high polyreactivity
4,QVQLVESGGGLVQAGGSLRLSCAASGSNWSYAMGWYSQAPGKESVLVATISRRGGSTYYADSVKGRFTISRDNAKNTVYLQMNSLKPEDTAVYYCAAAESASSFRFDYWGQGTQETVSS,high polyreactivity
5,QVQLVESGGGLVQAGGSLRLSCAASGSNYYWYAMVWSRQAPGKEMELVADITTSDGRTYYADSVKGRFTISRDNAKNTVYFLMNSLKPEDTAVYYCAADPFSGYGFQYYRGLYYWGQGTQVSVSS,low polyreactivity
6,QVQLVESGGGLVQAGGSLRLSCAASGSPFRPYVMGWSRQAPGKERELVAAISWRGGTTYYADSVKGRFTISRDNAKNTDYLQIHSLKPEDTAVYYCAARGDQGVPVARRYDYWGQGTQVTVSS,high polyreactivity
7,QVQLVESGGGLVQAGGSLRLSCAASGSPFRSYAMGWYRQAPGKERELVAAISISGGRTYYADSVKGRFTISRDNAKNTVYLQMNSLKPEDTAVYYCAADRRTDGHDYWGQGTQVTVSS,high polyreactivity
8,QVQLVESGGGLVQAGGSLRLSCAASGSSFNYNTMGWYRQAPGKERELVADISWSGGSTYYADSVKGRFTISRDNAKNTVYLQMNSLKPEDTAVYYCAADFGLFPYVGTGYYYWGQGTQVTVSS,low polyreactivity
9,QVQLVESGGGLVQAGGSLRLSCAASGSSFTNYGMGWYRQAPGKERELVAAISESGDTTYYADSVKGRFTISRDNAKNTVYLQMNSLKPEDTAVYYCNRAHGRSRYSRDYDSWGQGTQVTVSS,low polyreactivity
10,QVQLVESGGGLVQAGGSLRLSCAASGSSFYTNAMGWYTQAPGKERELVAAISSSGDSTYYADSVKGRFTISRDNANNTVYLQMNSLKPEDTGVYYCNADRRSYNGFRYYYWGQGTQVTVSS,low polyreactivity
11,QVQLVESGGGLVQAGGSLRLSCAASGSSFYVNAMGWYRQAPGKEREFVAAITWNSGSTYYADSVKGRFTISRDNEKNTVYLQMNSLKPEDTAVYYCAAVLSGRVYGYDYWGQGTQVTVSS,low polyreactivity
12,QVQLVESGGGLVQAGGSLRLSCAASGSSLGLNAMGWYRQAPGKERELVAGISWRGGSTYYADSVKGRFTISRDNAKNTVYLQMNSLKPEDTAVYYCNAVRFYGRWRGYDYWGQGTQVTVSS,high polyreactivity
13,QVQLVESGGGLVQAGGSLRLSCAASGSSRIYDMGWYRQAPGKERVWVAAISSTGSTYYADSEKGRYTISRDNAKNTGYLQMNSLKPEETADYYCAAARYYRYDSYSSWGQGTQVTVSS,high polyreactivity
14,QVQLVESGGGLVQAGGSLRLSCAASGSTCDRYAMGWYRQAPGKERELVAAITDTGGSTYYADSVKGRFTISRDNAKNTVYLQMNSLKPEDTAVFYCAKGYFWSSYVSSRYGSWGQGTQVTVSS,high polyreactivity
15,QVQLVESGGGLVQAGGSLRLSCAASGSTCRPYVMGWFRQAPGKERELVAAISWRGGTTYYADSVKGRFTISRDNAKNTVSLQMNSLKPEDTAVYYCAARGDQGVPVARRYDYWGQGSQVTVSS,high polyreactivity
16,QVQLVESGGGLVQAGGSLRLSCAASGSTCYKYAMGWYRKAPGKERELVAVITKSGGSTYYADSVKGRFTISRDNAKNPVYLQMNSLTPEDTAVYYCGTVQSGRVRTYDYCGQGTQVTVSS,high polyreactivity
17,QVQLVESGGGLVQAGGSLRLSCAASGSTFAANAMGWYRQAPGKERELVAAITGSGGGTYYADSVKGRFTISRDNAKNTVYLQMNSLKPEDTAVYYCNTYYYWQYDWGQGTQVTVSS,high polyreactivity
18,QVQLVESGGGLVQAGGSLRLSCAASGSTFAANAMGWYRQAPGKERELVAGISESGDRTYADSVKGRFTISRDNPKNTVYLQMNSLKPEDTAVYYCNVGANVYLLYFPSRGGVYDYGYWGQGTQVTVSS,low polyreactivity
19,QVQLVESGGGLVQAGGSLRLSCAASGSTFAANPMGWYRQAPGKERELVAAITSSGGSTYYADSVKGRFTISRDNAKNTVYLQMNSLKPEDTEVYYCNKDIERYVRIYDSWGQGTQVTVSS,low polyreactivity
20,QVQLVESGGGLVQAGGSLRLSCAASGSTFAASVMGWYRQAPVKERELVAAISTSGGGTYYADSVKGRFTISRDNAKNTVYLQMNSLIPEDTAVYYCAADYGSGSVSYDYWGQGTQVTVSS,low polyreactivity
21,QVQLVESGGGLVQAGGSLRLSCAASGSTFAAYVMGWYRQAPGKERELVAAISTSGGRTYYADSVKGRFTISRDNAMNTVYLQMNSLIPEDTAVYYCAKKRINSRKYDYWGQGTQVNVSS,low polyreactivity
22,QVQLVESGGGLVQAGGSLRLSCAASGSTFAEYAMGWYRQAPGKERELVAAIRWSGGSTSYADSVKGRFTISRDNAKNTVYLQMNSLKPEDTAVYYCAAERFWYDGEVKLYVLSYYWGQGTQVTVSS,low polyreactivity

row,Sequence,polyreactivity (PSR sort gate)
1,QVQLVESGGGLVQAGGSLRLSCAASGSTFAFYAMGWYRQAPGKEREFVAAITWDGGTTYYADSVKGRFTISLDNAKNTVYLQMNSLKPEDTAVYYCATQYLSYLYAGRYDYWGQGTQVTVSS,low polyreactivity
2,QVQLVESGGGLVQAGGSLRLSCAASGSTFAFYAMGWYRQAPGTERELVAAIRSGGSTNYADSVKGRFTISRDNAKNTVYLQMNSLKPEDTAVYYCAARESDPGSHSVYREDDYWGQGTQVTVSS,low polyreactivity
3,QVQLVESGGGLVQAGGSLRLSCAASGSTFAGNAMGWYIQAPGKERELVAAISSSGAGTYYADSVKGRFTISRDNAKNTVYLLINSLKPADTAVYYCNVGSRALRRRVRSVSFDYWGQGTQVSVSS,low polyreactivity
4,QVQLVESGGGLVQAGGSLRLSCAASGSTFAGNAMGWYRQAPGKERELVAAITWSGGNTNYADSVKGRFTISRDNAKNTVYLQMNSLKPEDTAVYYCASDFSGSLAYDYWGQGTQVTVSS,low polyreactivity
5,QVQLVESGGGLVQAGGSLRLSCAASGSTFAGNEMGWYRQAPGKERELVAAITFSGGRTDYADSVKGRFTISRDNAKNTVYFQINCLKPEDTAVYDCAAPADDTVHYQNYYWGQGTQVSVSS,low polyreactivity
6,QVQLVESGGGLVQAGGSLRLSCAASGSTFAGNGMGWYRQAPGKEGELVAGIDVTGGSTYYADSVKGRFTISRDNAKKTVDLQMNSLKPEDTAVYYCYARYVYHSSFAGFDYWGQGTQVTVSS,low polyreactivity
7,QVQLVESGGGLVQAGGSLRLSCAASGSTFAGYAMGWYIQAPGKERELVASIRSGGSTNYADSVKGRFSISRDNAKNTVYLQMNSLKPEDTAVYYCAARPDQKRYDYWGQGTQVTVSS,low polyreactivity
8,QVQLVESGGGLVQAGGSLRLSCAASGSTFAGYAMGWYRQAPGKERELVATITYSGGTTYYADSVKGRFTISRDTAKNTVFLQMKSLKPEDTAVYYCDNKASYWWGFEYWGQGTQVTVSS,low polyreactivity
9,QVQLVESGGGLVQAGGSLRLSCAASGSTFAGYAMGWYRQEPGKERELVAAISGSGGTTYYADSVKGRFTISRDNAKNTVYLQMNSLKPEDNAVYYCAALRGRYYGGLGDYWGQGTQVTVSS,high polyreactivity
10,QVQLVESGGGLVQAGGSLRLSCAASGSTFAGYAMGWYRQPPGKERELVAAISYSGGTTYYADSVKGRFTISRDNAKNTVYLQMNSLKPEDTAVYYCAARKKFKTPSYDMYYWGQGTQVTVSS,high polyreactivity
11,QVQLVESGGGLVQAGGSLRLSCAASGSTFAINAMGWYRQAPGTERELVAAIRYSTGRTYYADSVKGRFTISRDNAKNTVYLQMNSLKPEDTAVYYCAALGFTKYGSRFDYWGQGTQVTVSS,high polyreactivity
12,QVQLVESGGGLVQAGGSLRLSCAASGSTFAIYAMGWYRQAPAKERELVAAITRGSTSYADSVKGRFTISRDNAKNTVYLQMNSLKPEDTAVYDCAADSSRYGVIRDFDYWGQGTQVTVSS,high polyreactivity
13,QVQLVESGGGLVQAGGSLRLSCAASGSTFAIYAMGWYRQAPGKERELVAAITGRSGSTYYADSVKGRFTISRDNAKNTVYLQMNSLKPEDTAVYYCAAQGGYRRTPYIHRDYWGQGTQVTVSS,high polyreactivity
14,QVQLVESGGGLVQAGGSLRLSCAASGSTFAIYAMGWYRQAPGKERELVAAITRGSTSYADSVKGRFTISRDNAKNTVYLQMNCLKPEDTAVYYCAAEYFLAQVYIYGYWGQGTQVTVSS,high polyreactivity
15,QVQLVESGGGLVQAGGSLRLSCAASGSTFAIYGMGWYRQAPGKERELVAGITRGGSTNYADSVKGRFTISRDNAKNTVYLQMNSLKPEDTAVYYCNKVQRSTYYNGYDYWGQGTQVTVSS,high polyreactivity
16,QVQLVESGGGLVQAGGSLRLSCAASGSTFAKYAMGWYRQAPGKERELVASIRLSGGSTYYADSVKGRFTISRDNAKNTVYLQMNSLKPEETAVYYCNKQFATFYYCFDYYYWGQGTQVTVSS,low polyreactivity
17,QVQLVESGGGLVQAGGSLRLSCAASGSTFAKYVMGWYRQAPGKERELVAAISRRGSSTYYADSVKGRFTISRDNAKNTVYLQMNSLKPEDTAVYYCAARFRYSGFEGMDYWGQGTQVTVSS,high polyreactivity
18,QVQLVESGGGLVQAGGSLRLSCAASGSTFALYAMGWYRQAPGKERELVAAITRGDRTYYADSVKGRFTISRDNAKNTVYLQMNSLKAEDSAVYYCAAGYFGLWVRYDYWGQGSQVTVSS,low polyreactivity
19,QVQLVESGGGLVQAGGSLRLSCAASGSTFALYAMGWYRQAPGKERELVAVITSGGSTYYADSVKGRFTISRDNAKNTVYLQMNSLKPEDTAVYYCAARRHVRKGPLGYWGQGTQVTLSS,high polyreactivity
20,QVQLVESGGGLVQAGGSLRLSCAASGSTFAPNAMGWYRQAPGKERELVAGISWGDSTYYADSVKGRFTISRDNAKNTVYLQMNSLKPEDTAVYYCNVDDPFYSGVVEFDYWGQGTQVTVSS,low polyreactivity
21,QVQLVESGGGLVQAGGSLRLSCAASGSTFAPNTMGWYRQAPGKERELVAGITDGTITTYADSVKGRFTISRDNAKNTVYLQMNSLKPEDTAVYYCATRQSWYPRWMDYWGQGTQVTVSS,high polyreactivity
